From publication PMC13544220, “Glycemic and bodyweight effects of GIPR coding variation reflect differences in surface expression and intrinsic functional impairment” (Science Advances, 2026)

Assays:
[1] = system: wild-type and variant SNAP-GIPR in Gipr-/- mouse islets; experiment: Insulin secretion from Gipr-/- mouse islets transduced with GIPR adenoviruses; type: cell-based; conditions: Fig 6D, Gipr-/- mouse islets
Method: Isolated islets used for insulin secretion assays were treated in 1.5-ml microcentrifuge tubes. Eight-ten islets were used per well with two-three technical replicates per condition. […] At the end of the treatment, supernatants containing the secreted insulin or glucagon were collected, centrifuged at 1000g for 5 min, and transferred to fresh tubes. […] The lysates were sonicated 3× for 10 s in a water bath and centrifuged at 10,000g for 10 min, and the supernatants were collected. The samples were stored at −20°C until the insulin or glucagon concentrations were determined using an Insulin Ultra-Sensitive HTRF Assay kit (62IN2PEG, Revvity) or an HTRF Glucagon Detection Kit (62CGLPEG, Revvity) respectively, according to the manufacturer’s instructions. GraphPad Prism 9.0 was used for the generation of the standard curve and sample concentration extrapolation. The total insulin or glucagon content was calculated by adding the secreted insulin to the insulin content of the lysates, and secretion was reported as the percentage release of total. The percent secretion of islets treated with agonist was normalized to that of islets treated with vehicle and reported as a fold change.

[2] = system: wild-type and variant SNAP-GIPR; experiment: Single-concentration GIP cAMP response by HTRF in AD293 cells; type: cell-based, human; conditions: Fig S3F, HTRF, mean;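 further: ratio to experiment-wide average response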
Method: All variants were tested in parallel on each occasion to control for transfection efficiency differences between experiments.

[3] = system: wild-type and variant SNAP-GIPR; experiment: cADDis cAMP imaging in AD293 cells, ensemble, expression-matched and per decile; type: cell-based, human; conditions: Fig S3F, cADDis, mean
Summary of the method: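 Transient SNAP-GIPR plus cADDis BacMam in AD293; 24 h; SNAP-Surface AF647 500 nM, 10 min RT; wide-field 10X imaging at 37°C in KRBH/6 mM glucose/0.1% BSA. Cells failing IBMX/FSK response criteria excluded.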

[4] = system: wild-type and variant SNAP-GIPR in Gipr-/- mouse islets; experiment: Surface SNAP-GIPR expression in pancreatic islets; type: cell-based, human; conditions: Fig 6B
Method: Islets were purified from Gipr^−/− mice as described in the “Islet isolation and culture” section. Islets were transduced with adenoviral wild-type or variant SNAP-tagged GIPR constructs (VectorBuilder) per the manufacturer’s instructions. All variants were tested in parallel on each occasion to control for transduction efficiency. Twenty-four hours posttransduction, whole, intact islets were labeled with SNAP-Surface Alexa Fluor 647 for 15 min at 37°C. Following labeling, the islets were placed in a drop of PBS in the center of a glass-bottom MatTek dish and imaged on a Zeiss LSM 780 inverted confocal microscope fitted with a 63X/1.4 NA oil immersion objective. Receptor surface levels were quantified in Fiji using a macro using full width at half maximum (FWHM) designed by the Facility for Imaging and Light Microscopy (FILM) at Imperial College London and expressed relative to wild-type GIPR. In additional experiments, islets transduced as above and labeled with SNAP-Surface-647 were fixed in 4% paraformaldehyde, permeabilized in 0.5% (v/v) Triton X-100 in PBS (15 min), washed once with PBS and incubated in blocking buffer (PBS and 1% BSA) for 1 hour, and incubated overnight at 4°C in primary antibodies against insulin (1:50; Dako IR002, Agilent Technologies) and glucagon (1:500; G2654, Sigma-Aldrich) in blocking buffer.

[5] = system: wild-type and variant SNAP-GIPR; experiment: Constitutive and agonist-mediated internalization, reversible SNAP-tag labelling, AD293 cells; type: cell-based, human; design: key to Internalisation, Vehicle / Internalisation, +GIP / Internalisation, GIP-only: % internalization: residual fluorescence after Mesna vs pre-Mesna; Surface expression: unit not given here; conditions: Mean; for +GIP internalisation (100 nM) / GIP-specific internalisation (100 nM) / Constitutive internalisation (100 nM) / Surface expression: Fig 4E; for +GIP internalisation (100 nM) / GIP-specific internalisation (100 nM): GIP 100 nM; for Internalisation, +GIP / Internalisation, GIP-only / Internalisation, Vehicle: Fig S4C, AD293
Summary of the method: (§1)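 Surface SNAP-GIPR signal removable by Mesna was tracked by imaging before and 10 min after treatment in pH 8.6 TNE buffer. Internalization is the Mesna-resistant share of specific fluorescence.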

[6] = system: wild-type and variant SNAP-GIPR; experiment: Constitutive and agonist-mediated internalization, reversible SNAP-tag labelling, INS-1 cells; type: cell-based, human; design: key to Internalisation, GIP-only / Internalisation, Vehicle / Internalisation, +GIP: % internalization: residual fluorescence after Mesna vs pre-Mesna; conditions: Mean; for +GIP internalisation (100 nM) / GIP-specific internalisation (100 nM) / Constitutive internalisation (100 nM): Fig 4G; for +GIP internalisation (100 nM) / GIP-specific internalisation (100 nM): GIP 100 nM; for Internalisation, +GIP / Internalisation, GIP-only / Internalisation, Vehicle: Fig S4C, INS-1
Summary of the method: as §1

Molecule | Insulin secretion, ratio G11 + GIP / G11 ([1]; replicate 1) | Insulin secretion, ratio G11 + GIP / G11 ([1]; replicate 2) | Insulin secretion, ratio G11 + GIP / G11 ([1]; replicate 3) | Insulin secretion, ratio G11 + GIP / G11 ([1]; replicate 4) | AD293 100 pM HTRF [2] | AD293 100 nM HTRF [2] | AD293 100 pM cADDis [3] | AD293 100 nM cADDis [3] | Surface SNAP-GIPR expression in pancreatic islets ([4]; replicate 1) | Surface SNAP-GIPR expression in pancreatic islets ([4]; replicate 2) | Surface SNAP-GIPR expression in pancreatic islets ([4]; replicate 3) | Surface SNAP-GIPR expression in pancreatic islets ([4]; replicate 4) | Surface SNAP-GIPR expression in pancreatic islets ([4]; replicate 5) | +GIP internalisation (100 nM) [5] | GIP-specific internalisation (100 nM) [5] | Constitutive internalisation (100 nM) [5] | Surface expression [5] | Internalisation, +GIP [5] | Internalisation, GIP-only [5] | Internalisation, Vehicle [5] | further results
E354Q (protein) RAETGSKGQTAGELYQRWERYRRECQETLAAAEPPSGLACNGSFDMYVCWDYAAPNATARASCPWYLPWHHHVAAGFVLRQCGSDGQWGLWRDHTQCENPEKNEAFLDQRLILERLQVMYTVGYSLSLATLLLALLILSLFRRLHCTRNYIHINLFTSFMLRAAAILSRDRLLPRPGPYLGDQALALWNQALAACRTAQIVTQYCVGANYTWLLVEGVYLHSLLVLVGGSEEGHFRYYLLLGWGAPALFVIPWVIVRYLYENTQCWERNEVKAIWWIIRTPILMTILINFLIFIRILGILLSKLRTRQMRCRDYRLRLARSTLTLVPLLGVHQVVFAPVTEEQARGALRFAKLGFEIFLSSFQGFLVSVLYCFINKEVQSEIRRGWHHCRLRRSLGEEQRQLPERAFRALPSGSGPGEVPTSRGLSSGTLPGPGNEASRELESYC | 1.276 | 0.2979 | 1.231 | 1.587 | 4.703 | 1.4229 | 41.2353 | 37.94 | 1.913 | 1.476 | 1.8301 | 2.1125 | 2.267 | 0.4635 | 0.1217 | 0.3419 | 0.6766 | 68.6221 | 17.9918 | 50.6302 | +GIP internalisation (100 nM) [6]: 0.4403; GIP-specific internalisation (100 nM) [6]: 0.1518; Constitutive internalisation (100 nM) [6]: 0.2885; Internalisation, +GIP [6]: 61.4683; Internalisation, GIP-only [6]: 21.0467; Internalisation, Vehicle [6]: 40.4217
R101H (protein) RAETGSKGQTAGELYQRWERYRRECQETLAAAEPPSGLACNGSFDMYVCWDYAAPNATARASCPWYLPWHHHVAAGFVLHQCGSDGQWGLWRDHTQCENPEKNEAFLDQRLILERLQVMYTVGYSLSLATLLLALLILSLFRRLHCTRNYIHINLFTSFMLRAAAILSRDRLLPRPGPYLGDQALALWNQALAACRTAQIVTQYCVGANYTWLLVEGVYLHSLLVLVGGSEEGHFRYYLLLGWGAPALFVIPWVIVRYLYENTQCWERNEVKAIWWIIRTPILMTILINFLIFIRILGILLSKLRTRQMRCRDYRLRLARSTLTLVPLLGVHEVVFAPVTEEQARGALRFAKLGFEIFLSSFQGFLVSVLYCFINKEVQSEIRRGWHHCRLRRSLGEEQRQLPERAFRALPSGSGPGEVPTSRGLSSGTLPGPGNEASRELESYC | 2.4659 | 2.05 | 1.407 | 1.963 | -0.001017 | 0.2474 | 6.465 | 17.19 | 0.3446 | 0.4042 | 0.02787 | 0.08995 | -0.05398 | 0.1328 | 0.01912 | 0.1137 | 0.2712 | 49.9522 | 4.89 | 45.062 | +GIP internalisation (100 nM) [6]: 0.1025; GIP-specific internalisation (100 nM) [6]: -0.004871; Constitutive internalisation (100 nM) [6]: 0.1074; Internalisation, +GIP [6]: 52.1317; Internalisation, GIP-only [6]: -2.542; Internalisation, Vehicle [6]: 54.6733
R190Q (protein, left off: SNAP-tag, end not stated, kept) RAETGSKGQTAGELYQRWERYRRECQETLAAAEPPSGLACNGSFDMYVCWDYAAPNATARASCPWYLPWHHHVAAGFVLRQCGSDGQWGLWRDHTQCENPEKNEAFLDQRLILERLQVMYTVGYSLSLATLLLALLILSLFRRLHCTRNYIHINLFTSFMLRAAAILSQDRLLPRPGPYLGDQALALWNQALAACRTAQIVTQYCVGANYTWLLVEGVYLHSLLVLVGGSEEGHFRYYLLLGWGAPALFVIPWVIVRYLYENTQCWERNEVKAIWWIIRTPILMTILINFLIFIRILGILLSKLRTRQMRCRDYRLRLARSTLTLVPLLGVHEVVFAPVTEEQARGALRFAKLGFEIFLSSFQGFLVSVLYCFINKEVQSEIRRGWHHCRLRRSLGEEQRQLPERAFRALPSGSGPGEVPTSRGLSSGTLPGPGNEASRELESYC | 0.6189 | 1.413 | 1.022 | 0.3777 | 0.272 | 0.2205 | -0.9408 | 9.541 | 0.6777 | 0.189 | 0.9549 | -0.2055 | -0.1767 | 0.1813 | -0.007972 | 0.1892 | 0.3493 | 51.2548 | -3.738 | 54.9926 | +GIP internalisation (100 nM) [6]: 0.2705; GIP-specific internalisation (100 nM) [6]: 0.0143; Constitutive internalisation (100 nM) [6]: 0.2562; Internalisation, +GIP [6]: 45.6067; Internalisation, GIP-only [6]: 2.692; Internalisation, Vehicle [6]: 42.915
